This test has as its target hAgo2 (Homo sapiens), Q9UKV8. Description: cleavage activity titration. To be noted: siRNA-bound hAgo2; remark: other sources report otherwise.

Here are results for one molecule from paper PMC4718636.

The Kd is a measure of binding affinity in units of concentration. Low values mean higher affinity, high ones lower affinity.

Sequence of hAgo2 (Homo sapiens), Q9UKV8 (Q9UKV8 whole entry): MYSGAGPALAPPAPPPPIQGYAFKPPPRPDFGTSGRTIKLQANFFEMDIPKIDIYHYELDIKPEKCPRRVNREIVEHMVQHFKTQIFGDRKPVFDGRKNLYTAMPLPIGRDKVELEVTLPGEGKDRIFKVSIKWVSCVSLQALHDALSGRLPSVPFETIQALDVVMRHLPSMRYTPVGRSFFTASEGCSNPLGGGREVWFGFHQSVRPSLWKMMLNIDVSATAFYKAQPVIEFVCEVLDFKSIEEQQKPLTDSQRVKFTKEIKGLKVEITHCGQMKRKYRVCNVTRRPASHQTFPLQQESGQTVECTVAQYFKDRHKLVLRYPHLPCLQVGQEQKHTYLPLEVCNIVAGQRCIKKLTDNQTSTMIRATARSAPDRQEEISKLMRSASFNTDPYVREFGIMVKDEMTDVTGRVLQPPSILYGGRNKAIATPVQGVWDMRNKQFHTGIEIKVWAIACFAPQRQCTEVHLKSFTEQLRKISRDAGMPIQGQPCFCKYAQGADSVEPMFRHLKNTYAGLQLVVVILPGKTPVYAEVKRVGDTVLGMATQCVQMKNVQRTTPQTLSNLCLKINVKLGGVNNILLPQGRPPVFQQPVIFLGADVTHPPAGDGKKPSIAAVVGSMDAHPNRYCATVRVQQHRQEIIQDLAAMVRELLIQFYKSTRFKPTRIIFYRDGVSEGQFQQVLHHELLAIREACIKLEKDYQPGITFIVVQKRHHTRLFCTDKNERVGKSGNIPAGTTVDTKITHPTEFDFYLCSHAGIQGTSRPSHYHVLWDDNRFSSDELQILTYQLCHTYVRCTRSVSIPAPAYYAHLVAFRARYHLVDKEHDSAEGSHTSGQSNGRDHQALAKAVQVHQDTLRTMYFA

B1: hTRBP, Q15633 (protein)
chain: MSEEEQGSGTTTGCGLPSIEQMLAANPGKTPISLLQEYGTRIGKTPVYDLLKAEGQAHQPNFTFRVTVGDTSCTGQGPSKKAAKHKAAEVALKHLKGGSMLEPALEDSSSFSPLDSSLPEDIPVFTAAAAATPVPSVVLTRSPPMELQPPVSPQQSECNPVGALQELVVQKGWRLPEYTVTQESGPAHRKEFTMTCRVERFIEIGSGTSKKLAKRNAAAKMLLRVHTVPLDARDGNEVEPDDDHFSIGVGSRLDGLRNRGPGCTWDSLRNSVGEKILSLRSCSLGSLGALGPACCRVLSELSEEQAFHVSYLDIEELSLSGLCQCLVELSTQPATVCHGSATTREAARGEAARRALQYLKIMAGSK
Molecule B1 had a Kd of 2000 nM.
